T1: ARHGEF11, O15085
T1 sequence (O15085 42-136, limits assumed, looked up): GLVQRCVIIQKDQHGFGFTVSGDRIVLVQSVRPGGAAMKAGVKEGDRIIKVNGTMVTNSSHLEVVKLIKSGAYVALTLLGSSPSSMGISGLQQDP

T2: DLG3_2, Q92796
T2 sequence (Q92796 221-321, limits assumed, looked up): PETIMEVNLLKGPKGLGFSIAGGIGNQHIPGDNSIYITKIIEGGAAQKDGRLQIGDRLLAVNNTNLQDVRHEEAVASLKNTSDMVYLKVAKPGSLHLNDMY

T3: FRMPD1, Q5SYB0
T3 sequence (Q5SYB0 52-145, limits assumed, looked up): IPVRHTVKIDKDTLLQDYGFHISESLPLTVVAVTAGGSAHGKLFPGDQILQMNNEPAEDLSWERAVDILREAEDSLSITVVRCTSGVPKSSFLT

T4: LIN7A, O14910
T4 sequence (O14910 103-200, limits assumed, looked up): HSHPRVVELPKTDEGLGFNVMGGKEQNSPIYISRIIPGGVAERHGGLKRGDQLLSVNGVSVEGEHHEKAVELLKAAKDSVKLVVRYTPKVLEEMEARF

T5: MPDZ_12, O75970
T5 sequence (O75970 1857-1958, limits assumed, looked up): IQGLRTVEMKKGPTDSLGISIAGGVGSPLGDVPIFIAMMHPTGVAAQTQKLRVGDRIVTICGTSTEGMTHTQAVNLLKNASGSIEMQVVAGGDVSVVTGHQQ

T6: PCLO, Q9Y6V0
T6 sequence (Q9Y6V0 4491-4600, limits assumed, looked up): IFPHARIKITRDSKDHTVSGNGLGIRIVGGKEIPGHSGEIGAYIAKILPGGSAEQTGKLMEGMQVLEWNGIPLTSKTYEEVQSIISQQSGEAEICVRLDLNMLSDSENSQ

T7: PTPN13_1, Q12923
T7 sequence (Q12923 1088-1188, limits assumed, looked up): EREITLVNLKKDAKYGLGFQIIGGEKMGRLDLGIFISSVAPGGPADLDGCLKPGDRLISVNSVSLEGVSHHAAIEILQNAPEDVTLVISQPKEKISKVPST

T8: SHANK1, Q9Y566
T8 sequence (Q9Y566 658-767, limits assumed, looked up): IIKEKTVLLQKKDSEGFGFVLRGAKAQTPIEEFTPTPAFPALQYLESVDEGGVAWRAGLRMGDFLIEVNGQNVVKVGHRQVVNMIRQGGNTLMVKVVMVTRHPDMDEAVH

T9: TX1BP3, O14907
T9 sequence (O14907 10-122, limits assumed, looked up): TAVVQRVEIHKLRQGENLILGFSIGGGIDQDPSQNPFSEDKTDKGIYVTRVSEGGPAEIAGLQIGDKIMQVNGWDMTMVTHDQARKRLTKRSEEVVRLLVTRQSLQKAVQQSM

B1: JAG1, P78504 (peptide)
chain: QSLNRMEYIV
B2: SLC22A12, Q96S37 (peptide)
chain: GNSVLKSTQF

What was measured:
Test in all cases: holdup assay
Parameters in all cases: key: below the threshold = too weak to quantify, mostly under pKd 3.1 to 4
Details in all cases: plain residues with an end cap or a label only (N-terminal biotin on a linker: ado-ado)
ARHGEF11, O15085 = target: T1, ARHGEF11, O15085
DLG1_1, Q12959 = target: DLG1_1, Q12959
DLG2_3, Q15700 = target: DLG2_3, Q15700
DLG3_2, Q92796 = target: T2, DLG3_2, Q92796
DLG5_1, Q8TDM6 = target: DLG5_1, Q8TDM6
DLG5_1, Q8TDM6, sequence (Q8TDM6 617-713): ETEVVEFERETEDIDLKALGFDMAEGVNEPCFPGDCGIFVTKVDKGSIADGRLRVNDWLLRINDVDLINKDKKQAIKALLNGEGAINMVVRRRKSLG

FRMPD1, Q5SYB0 = target: T3, FRMPD1, Q5SYB0
GIPC2, Q8TF65 = target: GIPC2, Q8TF65
GIPC2, Q8TF65, sequence (Q8TF65 112-203): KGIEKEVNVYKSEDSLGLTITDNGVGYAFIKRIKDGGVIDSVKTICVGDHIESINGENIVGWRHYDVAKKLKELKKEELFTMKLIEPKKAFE

GORASP2, Q9H8Y8 = target: GORASP2, Q9H8Y8
GRASP, Q7Z6J2 = target: GRASP, Q7Z6J2
GRASP, Q7Z6J2, sequence (Q7Z6J2 96-193): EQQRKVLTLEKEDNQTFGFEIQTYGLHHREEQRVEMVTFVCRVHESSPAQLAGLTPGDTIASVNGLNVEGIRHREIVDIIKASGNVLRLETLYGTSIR

GRID2IP_1, A4D2P6 = target: GRID2IP_1, A4D2P6
GRID2IP_1, A4D2P6, sequence (A4D2P6 1-87): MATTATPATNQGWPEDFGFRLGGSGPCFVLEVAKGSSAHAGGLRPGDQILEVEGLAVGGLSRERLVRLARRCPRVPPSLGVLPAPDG

Inadl_1, Q8NI35 = target: Inadl_1, Q8NI35
Inadl_1, Q8NI35, sequence (Q8NI35 113-229): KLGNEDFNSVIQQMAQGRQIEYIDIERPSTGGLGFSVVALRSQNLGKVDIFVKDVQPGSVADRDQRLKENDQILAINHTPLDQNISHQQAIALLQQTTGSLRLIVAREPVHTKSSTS

Inadl_10, Q8NI35 = target: Inadl_10, Q8NI35
Inadl_10, Q8NI35, sequence (Q8NI35 1673-1763): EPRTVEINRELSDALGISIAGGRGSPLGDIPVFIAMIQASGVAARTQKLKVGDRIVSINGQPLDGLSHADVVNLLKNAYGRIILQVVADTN

Inadl_5, Q8NI35 = target: Inadl_5, Q8NI35
Inadl_5, Q8NI35, sequence (Q8NI35 673-780): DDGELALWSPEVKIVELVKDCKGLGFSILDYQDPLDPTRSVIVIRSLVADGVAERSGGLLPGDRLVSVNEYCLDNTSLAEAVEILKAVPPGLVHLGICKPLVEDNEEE

Inadl_9, Q8NI35 = target: Inadl_9, Q8NI35
Inadl_9, Q8NI35, sequence (Q8NI35 1530-1615): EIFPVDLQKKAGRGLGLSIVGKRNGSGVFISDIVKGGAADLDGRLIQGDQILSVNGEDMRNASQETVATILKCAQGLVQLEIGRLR

LIN7A, O14910 = target: T4, LIN7A, O14910
LNX1_1, Q8TBB1 = target: LNX1_1, Q8TBB1
LNX1_1, Q8TBB1, sequence (Q8TBB1 261-371): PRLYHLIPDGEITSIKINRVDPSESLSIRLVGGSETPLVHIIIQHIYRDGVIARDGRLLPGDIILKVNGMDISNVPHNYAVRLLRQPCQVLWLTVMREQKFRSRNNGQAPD

MAGI2_2, Q86UL8 = target: MAGI2_2, Q86UL8
MAGI2_2, Q86UL8, sequence (Q86UL8 410-522): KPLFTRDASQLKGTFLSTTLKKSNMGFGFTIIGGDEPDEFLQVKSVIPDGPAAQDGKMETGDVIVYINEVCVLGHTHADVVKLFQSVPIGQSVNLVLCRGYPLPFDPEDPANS

MAGI2_3, Q86UL8 = target: MAGI2_3, Q86UL8
MAGI2_3, Q86UL8, sequence (Q86UL8 600-682): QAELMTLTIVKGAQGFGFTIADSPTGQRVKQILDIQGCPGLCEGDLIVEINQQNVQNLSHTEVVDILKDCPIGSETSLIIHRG

MAGI2_6, Q86UL8 = target: MAGI2_6, Q86UL8
MAGI2_6, Q86UL8, sequence (Q86UL8 1141-1229): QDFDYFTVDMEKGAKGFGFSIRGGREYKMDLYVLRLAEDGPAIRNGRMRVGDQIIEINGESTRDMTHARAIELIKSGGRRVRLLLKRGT

MAST2, Q6P0Q8 = target: MAST2, Q6P0Q8
MAST2, Q6P0Q8, sequence (Q6P0Q8 1099-1202): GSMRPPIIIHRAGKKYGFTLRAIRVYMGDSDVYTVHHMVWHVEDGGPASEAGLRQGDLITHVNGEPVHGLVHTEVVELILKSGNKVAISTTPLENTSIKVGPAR

MPDZ_12, O75970 = target: T5, MPDZ_12, O75970
NHERF2_2, Q15599 = target: NHERF2_2, Q15599
NHERF2_2, Q15599, sequence (Q15599 142-238): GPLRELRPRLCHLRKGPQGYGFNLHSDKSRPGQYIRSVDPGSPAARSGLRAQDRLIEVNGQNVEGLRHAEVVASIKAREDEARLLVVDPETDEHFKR

NHERF4_4, Q86UT5 = target: NHERF4_4, Q86UT5
NHERF4_4, Q86UT5, sequence (Q86UT5 464-550): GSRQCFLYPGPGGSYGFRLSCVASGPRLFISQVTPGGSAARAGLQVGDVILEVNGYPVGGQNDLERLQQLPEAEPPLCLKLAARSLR

PCLO, Q9Y6V0 = target: T6, PCLO, Q9Y6V0
PDZRN4_1, Q6ZMN7 = target: PDZRN4_1, Q6ZMN7
PDZRN4_1, Q6ZMN7, sequence (Q6ZMN7 213-318): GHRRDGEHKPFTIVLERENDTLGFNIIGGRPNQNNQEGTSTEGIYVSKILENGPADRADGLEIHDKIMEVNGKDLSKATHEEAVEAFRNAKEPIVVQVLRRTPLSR

PTPN13_1, Q12923 = target: T7, PTPN13_1, Q12923
PTPN3, P26045 = target: PTPN3, P26045
PTPN3, P26045, sequence (P26045 505-587): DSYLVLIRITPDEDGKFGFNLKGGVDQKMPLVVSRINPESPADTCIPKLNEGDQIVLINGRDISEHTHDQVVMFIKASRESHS

SHANK1, Q9Y566 = target: T8, SHANK1, Q9Y566
TX1BP3, O14907 = target: T9, TX1BP3, O14907

Row | Binder | pKd (ARHGEF11, O15085) | pKd (DLG1_1, Q12959) | pKd (DLG2_3, Q15700) | pKd (DLG3_2, Q92796) | pKd (DLG5_1, Q8TDM6) | pKd (FRMPD1, Q5SYB0) | pKd (GIPC2, Q8TF65) | pKd (GORASP2, Q9H8Y8) | pKd (GRASP, Q7Z6J2) | pKd (GRID2IP_1, A4D2P6) | pKd (Inadl_1, Q8NI35) | pKd (Inadl_10, Q8NI35) | pKd (Inadl_5, Q8NI35) | pKd (Inadl_9, Q8NI35) | pKd (LIN7A, O14910) | pKd (LNX1_1, Q8TBB1) | pKd (MAGI2_2, Q86UL8) | pKd (MAGI2_3, Q86UL8) | pKd (MAGI2_6, Q86UL8) | pKd (MAST2, Q6P0Q8) | further results
1 | B1 | below the threshold | below the threshold | 3.96 | 4.45 | below the threshold | below the threshold | below the threshold | 5.14 | below the threshold | below the threshold | 3.69 | below the threshold | 4.86 | 3.65 | below the threshold | below the threshold | 3.91 | below the threshold | below the threshold | 4.07 | pKd (MPDZ_12, O75970): below the threshold; pKd (NHERF2_2, Q15599): below the threshold; pKd (NHERF4_4, Q86UT5): below the threshold; pKd (PCLO, Q9Y6V0): below the threshold; pKd (PDZRN4_1, Q6ZMN7): below the threshold; pKd (PTPN13_1, Q12923): below the threshold; pKd (PTPN3, P26045): below the threshold; pKd (SHANK1, Q9Y566): below the threshold; pKd (TX1BP3, O14907): below the threshold
2 | B2 | below the threshold | below the threshold | 3.74 | 4.21 | below the threshold | below the threshold | below the threshold | below the threshold | 4.07 | below the threshold | below the threshold | below the threshold | below the threshold | below the threshold | below the threshold | below the threshold | below the threshold | 3.61 | below the threshold | 4.77 | pKd (MPDZ_12, O75970): below the threshold; pKd (NHERF2_2, Q15599): 4.47; pKd (NHERF4_4, Q86UT5): below the threshold; pKd (PCLO, Q9Y6V0): below the threshold; pKd (PDZRN4_1, Q6ZMN7): below the threshold; pKd (PTPN13_1, Q12923): below the threshold; pKd (PTPN3, P26045): 4.59; pKd (SHANK1, Q9Y566): 4.96; pKd (TX1BP3, O14907): below the threshold

From paper PMC9482650, “Quantitative fragmentomics allow affinity mapping of interactomes” (Nature Communications, 2022)
